From PMC8779868, “Uncovering Novel Plasma Membrane Carboxylate Transporters in the Yeast Cyberlindnera jadinii” (Journal of Fungi, 2022)

T1: CjAto5 (Williopsis jadinii, UniProt A0A1E4RU05)
T1 construct: gene CYBJADRAFT_178915; full ORF in p416GPD, expressed in S. cerevisiae IMX1000; cloned from DSM 2361 DNA
T1 sequence (A0A1E4RU05 1-272): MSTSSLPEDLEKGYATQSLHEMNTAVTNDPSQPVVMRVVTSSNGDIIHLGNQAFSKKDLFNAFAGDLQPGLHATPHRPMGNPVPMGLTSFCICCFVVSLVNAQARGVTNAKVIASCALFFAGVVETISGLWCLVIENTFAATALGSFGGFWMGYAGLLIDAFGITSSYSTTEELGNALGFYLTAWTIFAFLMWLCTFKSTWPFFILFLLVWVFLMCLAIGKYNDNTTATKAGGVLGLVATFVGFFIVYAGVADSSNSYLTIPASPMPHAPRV

B1: CjJen2 (Williopsis jadinii) (protein)
chain: MTSPLPVSPTQDSGLEEPKEDKNIGLTRTLQENEEDSNSSNDEDVPDYSWSSIKRYSRTRFTTLGELHLDSLSDLNPLPALKEMTPRNWNFFFMGFIAWFSASFAFFLTAVSGTVIAESLEVSTKDITWGLSSVLMVRSAGAVIFGLWTDNYSRKWPFIATAAMFCVLQIGTGFCNTYTQFLAGGTYATAAATSLEDAPLKARSTLSGLFFTAYPFGMVFAAIFWRAFQETDHTWKALFWFSAGIPFVLIIWRLLYPETIYFTELLKVKKLIKEEASTSPKISKWAKTKTMFSKYWLLFTYLVLLLASSNFLTHASQDMYPTMLRSQFGWSNDAQTVAIVVTNLGGVIGSLVTGIVMEVLGRRLSILLCCVIGGSFIYPALMLHTTSATLGCGFFMMFGVLGVWGVIPAHLSELSPPDARVLVSGLAYQLGNLASSASSTIETDLAQRWPLEWDAEGNVIRLDYAKTIAVFTGAVFIYTVVIALVGPEKYHRDLNSPLLKKYFAKLRENDVEKGSSSE
B2: CjSlc5 (Williopsis jadinii) (protein)
chain: MFAETEDGPDYRGVTTFGAAVLIAKGQLGLGVLGIPSTFDVLGFVPGLISLVGLSILVTWTGVVIGQFRLAHPKVYCIDDATEIMFGKAARELVGWGYWLFYTMCYGAALITVSIALNTFSDHGLCTMAFIGIATGATTILTLFTRTMKVLSWLGFIAISCIFFAIWVVAIACLTQSTPAAAESLVDPAKKVIQVVATHSSYKKIAAAVSVQLLSLAGGASFFTIHAEMKDQTKYTKSLLMGQGFIVFNYIAIACIMYAKVGQYIASPALGSAGRTFQIISYGIAFPGLMFSCFFLAHLAAKYALVRILRGTEHLQKNSKTHWITWTAMVAIVIAVGFVIAGAIPFFGDLLGLIGALLGSIFALIAPGFMCLYDMNYKFEGKVPRGYTWIYKNNGSWTKNFWTKLETLLSFFCIASGIYILFTGVYGSIASIADLYSSGAVSGAFSCADNS
B3: CjAto5 (Williopsis jadinii) (protein)
chain: T1 sequence (A0A1E4RU05 1-272)
B4: CjAto2 (Williopsis jadinii) (protein)
chain: MSSINEDLEKISSLGELNYDSHPISQVRTAGPNDEFVMLGRMKVRKSELWSAFGGDLQPGVHAQPQRKFANPVPIGLCGFALTTLVLSMANARAMGIRTPNVAVAPAFFYGGFAQILAGMWEIALENTFGSVVLTSYGCFWLSWAAIEIDWFGIKAAYDDPIELENAIGFFLLGWVIFTFLILLCTMKSTVAFFSMFFLLEITFILLTVASFTRHVGCQRAGGVFGVITGFLAWYNAYAGIATKEISYFVPKPWPLPGASHL
B5: CjJen3 (Williopsis jadinii) (protein)
chain: MAMSDVKRYILSRVPTLFCIPGTSFQALNPVPALSALSRNDWNYFLMGYAAWTIDAFDFFCVSACAPALAQALDRSVTDITWGITLVLMTREYFAHIDGQLTDIFEIGSLGAVIFGSLSDTYGRKPTYLAVMCLFCIIEVGTGFVQNYTQFLVVRAMFGICMGGCYTTASATALESQPVGSRSVLGGIFLPGYNLGYILAVAFYRAFEFTEHGWRALFWFSAAPPAILFVWRMFFPEHPHFTALKRVQREKALSEGKHHQASSPWAQFFADLKSAMRHHWLMFVYLVIYMSLMNFSSHASQDLMPTMLQNQLGFEANDRTIIMVVINIGAIFGGLCVGTISEYTGRRLAVFVCTICSSALIYPAFYTTDMAGLICGGFFMQFFVMGCWGVTSVYIMELSPNAFRALFGGLAYQLGNLASSASSTIEAEISEAFPLSDIGPEVYDYARSMALFMVGVNVCLVICIVSGPEKFHKDFSIQGEGQEQLQRKSCNDVDEELAIEYTEDLKHTDRVSWTEKHSIHHNEKT
B6: CjJen4 (Williopsis jadinii) (protein)
chain: MTAGRYIATRIPSLFTLPGTPVKSLNPAPAMRALSRSDWNYFAMGYCAWVIDAFDFFCVSACAPALAKAFDRSIHDITWGITLVLMTRSLGAVIFGSLSDTYGRKPTYLAVMALFSIIEIGTGFVQNYTQFLIVRLLFGICMGGCYTTASATALESQPTTSRSVLGGIFLPGYNLGYILAVAFYRAFEFSTHGWRALFWFSAAPPAILFMWRLMFPEHPHFVEHKRVQREKALAEGNHAQAASPWRQFYSDLKKALSNHWLMFVYLVFYLSLMNFSSHASQDLMPTMLQNQLFFSANQRTAIMIVVNLGAMVGGLCVGTLSEFTGRRLAIFSCAVGSSALIYPAFFSTSIGGLMAGGFFMQFFVMGCWGVCSVYIMELSPPAFRALFGGLAYQLGNLASSASSTIESEISSSFPLPDLGPSVYDYAKSMALFMVGVNVCLIVCIVCGPEYFHRDFSAHAEENYSDQKKATIEQFDTASDEERAMGSLKMNTEVEEFDMDKASVQHRESARD
B7: CjJen6 (Williopsis jadinii) (protein)
chain: MGFKTYSMSECAQYTRERFTTLLPSREQWEVEKSHMNPFPGLRAMTWRNWQFYIIGMLAWTWDALDFFAMSLNMSNISEDLNRSVKDVSWGITLVLMFRSVGAIFFGYFGDRYGRKWPLIVNLICLIVIQIGTGFVKTYSEFLGVRALFGIFMGSMYGLASATALEGLPTDARSFLSGVFQQGYALGYLLAVIFQRAITDTTEKGWRSLFWFSAGPPVLFILWRAFLPETEEFLQQKLHMSNRKSTFRRDAWNTFKQQWVKMGYLVLLMAGMNFMSHGSQDLYPTMLTKQLGFSSDRSTVTNSVANLGAMAGGMVIGHFSGFIGRRAAIMVCCICGGAMIYPWAFVTGNGINAGVFFLQFFVQGAWGVIPIHLSELSPPEFRAFVVGVSYQLGNLVSSASSTIETTIGERFPLYTETGERREGVYDYAKVMAIFVGAVFAYVFLISFIGPENRHANINFVLSDEEQREMVSQGKIITHKGSDDENLDEEKAVAFHTENVVSEVK

Key:
[1] = molecular target: T2, CjSlc13-1 (Williopsis jadinii, UniProt A0A1E4RYH4); details: pH 6.0, 30 °C; labelled compound
T2 construct: gene CYBJADRAFT_194887

[2] = molecular target: T3, CjSlc13-2 (Williopsis jadinii, UniProt A0A1E4S914); details: pH 6.0, 30 °C; labelled compound
T3 construct: gene CYBJADRAFT_165372

[3] = molecular target: T4, CjSlc16 (Williopsis jadinii, UniProt A0A1E4RTM6); details: pH 6.0, 30 °C; labelled compound
T4 construct: gene CYBJADRAFT_170140

[4] = molecular target: T1, CjAto5; assay: […]-succinate uptake, initial rates in S. cerevisiae IMX1000; format: cell-based; details: pH 5.0, 30 °C; labelled compound
[5] = molecular target: T5, CjAto2 (Williopsis jadinii, UniProt A0A1E4S9G0); assay: as above; format: cell-based; details: pH 5.0, 30 °C; labelled compound
T5 construct: gene CYBJADRAFT_7539; full ORF in p416GPD, expressed in S. cerevisiae IMX1000; cloned from DSM 2361 DNA

[6] = substrate: CC(=O)O; assay: cells, lysate or membranes; details: pH 6.0, 30 °C, labelled compound, pH 6.0
[7] = substrate: O=C(O)CC(O)(CC(=O)O)C(=O)O; assay: cells, lysate or membranes; details: pH 5.5, 30 °C, labelled compound, pH 5.5
[8] = substrate: C[C@H](O)C(=O)O; assay: cells, lysate or membranes; details: pH 5.0, 30 °C, labelled compound, pH 5.0

T4 sequence (A0A1E4RTM6 1-470): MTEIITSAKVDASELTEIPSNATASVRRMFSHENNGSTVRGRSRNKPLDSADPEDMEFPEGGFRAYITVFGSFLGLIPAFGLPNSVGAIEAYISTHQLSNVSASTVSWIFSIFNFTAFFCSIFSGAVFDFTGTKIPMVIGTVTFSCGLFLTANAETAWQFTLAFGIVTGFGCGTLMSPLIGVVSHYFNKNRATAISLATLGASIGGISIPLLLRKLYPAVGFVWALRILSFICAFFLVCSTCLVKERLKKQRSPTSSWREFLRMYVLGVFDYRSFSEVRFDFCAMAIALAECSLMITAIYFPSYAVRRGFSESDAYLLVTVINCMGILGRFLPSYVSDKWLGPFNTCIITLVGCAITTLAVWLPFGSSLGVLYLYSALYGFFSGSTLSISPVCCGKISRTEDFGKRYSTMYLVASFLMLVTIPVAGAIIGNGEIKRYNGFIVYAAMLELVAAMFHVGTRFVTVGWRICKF
T2 sequence (A0A1E4RYH4 1-843): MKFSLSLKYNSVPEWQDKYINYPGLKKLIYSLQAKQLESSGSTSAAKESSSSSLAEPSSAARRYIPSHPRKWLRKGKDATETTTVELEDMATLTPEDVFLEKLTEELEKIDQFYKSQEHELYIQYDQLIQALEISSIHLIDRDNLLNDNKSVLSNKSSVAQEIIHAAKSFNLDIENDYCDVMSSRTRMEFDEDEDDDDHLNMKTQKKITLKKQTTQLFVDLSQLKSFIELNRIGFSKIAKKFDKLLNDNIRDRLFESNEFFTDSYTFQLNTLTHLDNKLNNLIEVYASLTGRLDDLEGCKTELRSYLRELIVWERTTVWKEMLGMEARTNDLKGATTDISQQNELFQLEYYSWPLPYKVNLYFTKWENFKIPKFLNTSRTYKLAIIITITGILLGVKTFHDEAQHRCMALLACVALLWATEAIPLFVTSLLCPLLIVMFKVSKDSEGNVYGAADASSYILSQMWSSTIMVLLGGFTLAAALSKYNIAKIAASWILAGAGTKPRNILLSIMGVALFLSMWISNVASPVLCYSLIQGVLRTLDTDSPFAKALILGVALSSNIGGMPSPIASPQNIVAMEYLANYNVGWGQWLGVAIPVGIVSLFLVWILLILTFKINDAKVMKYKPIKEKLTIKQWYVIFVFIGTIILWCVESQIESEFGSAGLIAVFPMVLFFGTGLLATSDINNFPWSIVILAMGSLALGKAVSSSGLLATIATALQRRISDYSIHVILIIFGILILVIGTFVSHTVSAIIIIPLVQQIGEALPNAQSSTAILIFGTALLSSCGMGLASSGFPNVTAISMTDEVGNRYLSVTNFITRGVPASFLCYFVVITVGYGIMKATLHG
T3 sequence (A0A1E4S914 1-821): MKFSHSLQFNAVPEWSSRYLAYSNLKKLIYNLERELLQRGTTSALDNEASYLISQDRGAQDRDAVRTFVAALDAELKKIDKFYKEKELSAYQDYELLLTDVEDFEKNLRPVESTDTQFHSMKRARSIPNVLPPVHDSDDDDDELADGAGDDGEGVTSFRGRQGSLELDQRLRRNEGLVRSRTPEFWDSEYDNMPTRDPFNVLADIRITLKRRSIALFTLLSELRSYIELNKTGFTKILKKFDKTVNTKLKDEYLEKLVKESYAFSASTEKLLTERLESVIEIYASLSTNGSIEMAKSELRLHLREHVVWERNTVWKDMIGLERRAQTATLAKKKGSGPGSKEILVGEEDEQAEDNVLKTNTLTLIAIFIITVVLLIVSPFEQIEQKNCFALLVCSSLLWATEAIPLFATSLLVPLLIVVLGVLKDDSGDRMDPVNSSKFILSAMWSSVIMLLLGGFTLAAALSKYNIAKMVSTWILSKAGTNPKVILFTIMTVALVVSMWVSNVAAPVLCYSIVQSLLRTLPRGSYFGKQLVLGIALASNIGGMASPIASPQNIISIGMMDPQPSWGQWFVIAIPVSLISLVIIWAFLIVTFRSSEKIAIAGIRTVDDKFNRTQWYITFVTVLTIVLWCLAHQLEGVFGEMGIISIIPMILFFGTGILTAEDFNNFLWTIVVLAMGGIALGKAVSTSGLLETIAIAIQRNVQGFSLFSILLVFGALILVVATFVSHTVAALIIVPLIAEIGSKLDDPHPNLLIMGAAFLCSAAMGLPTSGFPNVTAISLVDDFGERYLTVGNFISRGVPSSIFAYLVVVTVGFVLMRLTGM

Molecule | Km [6] | Km [7] | also measured
CC(=O)O [acetic acid] | – | – | uptake [1]: All transformants presented activity for acetate uptake (Figure 3C); uptake [2]: All transformants presented activity for acetate uptake (Figure 3C); uptake [3]: All transformants presented activity for acetate uptake (Figure 3C)
O=C(O)CCC(=O)O [succinic acid] | – | – | Km [4]: 0.45 ± 0.09 mM; Km [5]: 3.38 ± 0.82 mM
B1 | 1.26 ± 0.35 mM | – | –
B2 | – | 17.24 ± 4.73 mM | –
B3 | – | 22.21 ± 7.14 mM | –
B4 | – | – | Km [8]: 4.33 ± 0.70 mM
B5 | 3.21 ± 1.07 mM | – | –
B6 | 1.62 ± 0.43 mM | – | –
B7 | – | 21.44 ± 7.17 mM | –
